Laboratory results published in PMC12132378 (bioRxiv, 2025).

Molecular target: Ub-Lys-TAMRA (UniProt P0CG48 1-76, Ub is isopeptide-linked to a TAMRA-labeled Lys-Gly dipeptide (modification at the Ub C-terminus))
Experiment: fluorescence polarisation

Kd: ~20 µM
B1: RNF114 (wild type, full length) (enzyme)
chain: MAAQQRDCGGAAQLAGPAAEADPLGRFTCPVCLEVYEKPVQVPCGHVFCSACLQECLKPKKPVCGVCRSALAPGVRAVELERQIESTETSCHGCRKNFFLSKIRSHVATCSKYQNYIMEGVKATIKDASLQPRNVPNRYTFPCPYCPEKNFDQEGLVEHCKLFHSTDTKSVVCPICASMPWGDPNYRSANFREHIQRRHRFSYDTFVDYDVDEEDMMNQVLQRSIIDQ
